The record followed here is FireProtDB.

To fix the notation:
B1: Alpha-amylase, P29957 (parent)
chain: MKLNKIITTAGLSLGLLLPSIATATPTTFVHLFEWNWQDVAQECEQYLGPKGYAAVQVSPPNEHITGSQWWTRYQPVSYELQSRGGNRAQFIDMVNRCSAAGVDIYVDTLINHMAAGSGTGTAGNSFGNKSFPIYSPQDFHESCTINNSDYGNDRYRVQNCELVGLADLDTASNYVQNTIAAYINDLQAIGVKGFRFDASKHVAASDIQSLMAKVNGSPVVFQEVIDQGGEAVGASEYLSTGLVTEFKYSTELGNTFRNGSLAWLSNFGEGWGFMPSSSAVVFVDNHDNQRGHGGAGNVITFEDGRLYDLANVFMLAYPYGYPKVMSSYDFHGDTDAGGPNVPVHNNGNLECFASNWKCEHRWSYIAGGVDFRNNTADNWAVTNWWDNTNNQISFGRGSSGHMAINKEDSTLTATVQTDMASGQYCNVLKGELSADAKSCSGEVITVNSDGTINLNIGAWDAMAIHKNAKLNTSSASSTESDWQRTVIFINAQTQSGQDMFIRGGIDHAYANANLGRNCQTSNFECAMPIRHNNLKNVTTSPWKANDNYLDWYGIENGQSSEAEGSATDWTTNVWPAGWGAEKTVNTDGFGVTPLNIWGEHYWMLDVDMDCSKAVNGWFELKAFIKNGQGWETAIAQDNAPYTSTNHMAQCGKINKFEFNNSGVVIRSF
B2: Interleukin-6, P08505 (parent)
chain: MKFLSARDFHPVAFLGLMLVTTTAFPTSQVRRGDFTEDTTPNRPVYTTSQVGGLITHVLWEIVEMRKELCNGNSDCMNNDDALAENNLKLPEIQRNDGCYQTGYNQEICLLKISSGLLEYHSYLEYMKNNLKDNKKDKARVLQRDTETLIHIFNQEVKDLHKIVLPTPISNALLTDKLESQKEWLRTKTIQFILKSLEEFLKVTLRSTRQT
B3: Tryptophan synthase alpha chain, P0A877 (parent)
chain: MERYESLFAQLKERKEGAFVPFVTLGDPGIEQSLKIIDTLIEAGADALELGIPFSDPLADGPTIQNATLRAFAAGVTPAQCFEMLALIRQKHPTIPIGLLMYANLVFNKGIDEFYAQCEKVGVDSVLVADVPVEESAPFRQAALRHNVAPIFICPPNADDDLLRQIASYGRGYTYLLSRAGVTGAENRAALPLNHLVAKLKEYNAAPPLQGFGISAPDQVKAAIDAGAAGAISGSAIVKIIEQHINEPEKMLAALKVFVQPMKAATRS
B4: Lactose operon repressor, P03023 (parent)
chain: MKPVTLYDVAEYAGVSYQTVSRVVNQASHVSAKTREKVEAAMAELNYIPNRVAQQLAGKQSLLIGVATSSLALHAPSQIVAAIKSRADQLGASVVVSMVERSGVEACKAAVHNLLAQRVSGLIINYPLDDQDAIAVEAACTNVPALFLDVSDQTPINSIIFSHEDGTRLGVEHLVALGHQQIALLAGPLSSVSARLRLAGWHKYLTRNQIQPIAEREGDWSAMSGFQQTMQMLNEGIVPTAMLVANDQMALGAMRAITESGLRVGADISVVGYDDTEDSSCYIPPLTTIKQDFRLLGQTSVDRLLQLSQGQAVKGNQLLPVSLVKRKTTLAPNTQTASPRALADSLMQLARQVSRLESGQ
B5: Triosephosphate isomerase, P00943 (parent)
chain: MRKPIIAGNWKMHKTLAEAVQFVEDVKGHVPPADEVISVVCAPFLFLDRLVQAADGTDLKIGAQTMHFADQGAYTGEVSPVMLKDLGVTYVILGHSERRQMFAETDETVNKKVLAAFTRGLIPIICCGESLEEREAGQTNAVVASQVEKALAGLTPEQVKQAVIAYEPIWAIGTGKSSTPEDANSVCGHIRSVVSRLFGPEAAEAIRIQYGGSVKPDNIRDFLAQQQIDGPLVGGASLEPASFLQLVEAGRHE

Values joined by “and” are separate entries in the source; they are usually repeats but may differ in a detail not shown here. Identical values can stand only once.

In one data set the parent is B1. The conditions noted are these: Pseudoalteromonas haloplanktis; pH 7.2; Thermal; DSC; Mops 30 mM; NaCl 50 mM; reversible: yes; structure 1AQH; whole UniProt chain shown.
For orientation: Tm means the temperature at which the thermal transition is half complete. As for K324R N174D V220F Q188I T256V, the melting temperature (Tm) worked out at 51.8 °C; the “change of melting temperature, mutant - wild type (higher = more stable)” value (“change of melting temperature, mutant” below) turned out to be 7.8 °C; the “unfolding enthalpy (calorimetric)” value turned out to be 277 kcal/mol.

The variants in the next data set derive from B2. The following applies: Mus musculus; pH 4; 25 °C; Urea; CD; Sodium acetate 20 mM/; reversible: yes; structure 2L3Y; whole UniProt chain shown.
With MKFLSARDFHPVAFLGLMLVTTTAFPTSQVRRGDFTEDTTPNRPVYTTSQVGGLITHVLWEIVEMRKELCNGNSDCMNNDDALAENNLKLPEIQRNDGCYQTGYNQEICLLKISSGLLEYHSYLEYMKNNLKDNKKDKARVLQRDTETLIHIFNQEVKDLHKIVLPTPISNALLTDKLESQKEWLRTKTIQFILKSLEEALKVTLRSTRQT [F200A], the “denaturant midpoint (higher = more stable)” value (shortened to “denaturant midpoint”) was 2.6 M.
In the case of MKFLSARDFHPVAFLGLMLVTTTAFPTSQVRRGDFTEDTTPNRPVYTTSQVGGLITHVLWEIVEMRKELCNGNSDCMNNDDALAENNLKLPEIQRNDGCYQTGYNQEICLLKISSGLLEYHSALEYMKNNLKDNKKDKARVLQRDTETLIHIFNQEVKDLHKIVLPTPISNALLTDKLESQKEWLRTKTIQFILKSLEEFLKVTLRSTRQT [Y123A], the “denaturant midpoint” value was 4.1 M.

Still in this data set, the particulars now being: Mus musculus; pH 4; 25 °C; Urea; Fluorescence; Sodium acetate 20 mM/; reversible: yes; structure 2L3Y; whole UniProt chain shown.
For MKFLSARDFHPVAFLGLMLVTTTAFPTSQVRRGDFTEDTTPNRPVYTTSQVGGLITHVLWEIVEMRKELCNGNSDCMNNDDALAENNLKLPEIQRNDGCYQTGYNQEICLLKISSGLLEYHSYLEYMKNNLKDNKKDKARVLQRDTETLIHIFNQEVKDLHKIVLPTPISNALLTDKLESQKEWLRTKTIQFILKSLEEALKVTLRSTRQT [F200A], the “denaturant midpoint” value was determined as 3.5 M.

The data set is the same for the next values; noted with them: Mus musculus; pH 4; 37 °C; Urea; CD; Sodium acetate 20 mM/; reversible: yes; structure 2L3Y; whole UniProt chain shown.
MKFLSARDFHPVAFLGLMLVTTTAFPTSQVRRGDFTEDTTPNRPVYTTSQVGGLITHVLWEIVEMRKELCNGNSDCMNNDDALAENNLKLPEIQRNDGCYQTGYNQEICLLKISSGLLEYHSYLEYMKNNLKDNKKDKARVLQRDTETLIHIFNQEVKDLHKIVLPTPISNALLTDKLESQKEWLRTKTIQFILKSLEEALKVTLRSTRQT [F200A]: the “denaturant midpoint” value stood at 2.6 M.

Still in this data set, the particulars now being: Mus musculus; pH 4; 37 °C; Urea; Fluorescence; Sodium acetate 20 mM/; reversible: yes; structure 2L3Y; whole UniProt chain shown.
For MKFLSARDFHPVAFLGLMLVTTTAFPTSQVRRGDFTEDTTPNRPVYTTSQVGGLITHVLWEIVEMRKELCNGNSDCMNNDDALAENNLKLPEIQRNDGCYQTGYNQEICLLKISSGLLEYHSYLEYMKNNLKDNKKDKARVLQRDTETLIHIFNQEVKDLHKIVLPTPISNALLTDKLESQKEWLRTKTIQFILKSLEEALKVTLRSTRQT [F200A], the “denaturant midpoint” value is 3.5 M.

The next data set covers variants of B3. The following applies: Escherichia coli (strain K12); pH 7; 25.8 °C; GdnHCl; CD; Potassium phosphate 0.01 M; reversible: yes; structure 1WQ5; whole UniProt chain shown.
For MERYESLFAQLKERKEGAFVPFVTLGDPGIEQSLKIIDTLIEAGADALMLGIPFSDPLADGPTIQNATLRAFAAGVTPAQCFEMLALIRQKHPTIPIGLLMYANLVFNKGIDEFYAQCEKVGVDSVLVADVPVEESAPFRQAALRHNVAPIFICPPNADDDLLRQIASYGRGYTYLLSRAGVTGAENRAALPLNHLVAKLKEYNAAPPLQGFGISAPDQVKAAIDAGAAGAISGSAIVKIIEQHINEPEKMLAALKVFVQPMKAATRS [E49M], the “ddG of mutation (higher = less stable)” value was -4.6 kcal/mol and the unfolding free energy came out at 13.4 kcal/mol.

The same data set, now with this note: Escherichia coli (strain K12); pH 7.8; 25 °C; Urea; Fluorescence; Potassium phosphate 10 mM; transition: 3; reversible: yes; structure 1WQ5; whole UniProt chain shown.
Turning to MERYESLFAQLKERKEGAFVPFVTLGDPGIEQSLKIIDTLIEAGADALELGIPFSDPLADGPTIQNATLRAFAAGVTPAQCFEMLALIRQKHPTIPIGLLMYANLVFNKGIDEFYAQCEKVGVDSVLVADVPVEESAPWRQAALRHNVAPIFICPPNADDDLLRQIASYGRGYTYLLSRAGVTGAENRAALPLNHLVAKLKEYNAAPPLQGFGISAPDQVKAAIDAGAAGAISGSAIVKIIEQHINEPEKMLAALKVFVQPMKAATRS [F139W], the unfolding free energy is 5.6 kcal/mol and 4.9 kcal/mol.

Staying with this data set, now noted: Escherichia coli (strain K12); pH 7.8; 25 °C; Urea; Fluorescence; Potassium phosphate 10 mM; reversible: yes; structure 1WQ5; whole UniProt chain shown.
For the variant MERYESLFAQLKERKEGAFVPFVTLGDPGIEQSLKIIDTLIEAGADALELGIPFSDPLADGPTIQNATLRAFAAGVTPAQCFEMLALIRQKHPTIPIGLLMYANLVFNKGIDEFYAQCEKVGVDSVLVADVPVEESAPFRQAALRHNVAPIFICPPNADDDLLRQIASYGRGYTYLLSRAGVTGAENRAALPLNHLVAKLKEYNAAPPLQGFGISAPDQVKAAIDAGAAGAISGSAIVKIIEQHINEPEKMLAALKVWVQPMKAATRS [F258W], the unfolding free energy worked out at 7 kcal/mol.

Still in this data set, the particulars now being: Escherichia coli (strain K12); pH 9; Thermal; DSC; Sodium tetraborate 1 mM; reversible: yes(>70%); structure 1WQ5; whole UniProt chain shown.
For the variant MERYESLFAQLKERKEGAFVPFVTLGDPGIEQSLKIIDTLIEAGADALELGIPFSDPLADGPTIQNATLRAFAAGVTPAQCFEMLALIRQKHPTIPIGLLMYANLVFNNGIDEFYAQCEKVGVDSVLVADVPVEESAPFRQAALRHNVAPIFICPPNADDDLLRQIASYGRGYTYLLSRAGVTGAENRAALPLNHLVAKLKEYNAAPPLQGFGISAPDQVKAAIDAGAAGAISGSAIVKIIEQHINEPEKMLAALKVFVQPMKAATRS [K109N], the Tm is 52.5 °C and the “change of melting temperature, mutant” value is -1.5 °C.

The variants in another data set derive from B4. The following applies: Escherichia coli (strain K12); pH 7.4; Thermal; CD; phosphate 5 mM; reversible: no; structure 1LBI; whole UniProt chain shown.
Take MKPVTLYDVAEYAGVSYQTVSRVVNQASHVSAKTREKVEAAMAELNYIPNRVAQQLAGKQSLLIGVATSSLALHAPSQIVAAIMSRADQLGASVVVSMVERSGVEACKAAVHNLLAQRVSGLIINYPLDDQDAIAVEAACTNVPALFLDVSDQTPINSIIFSHEDGTRLGVEHLVALGHQQIALLAGPLSSVSARLRLAGWHKYLTRNQIQPIAEREGDWSAMSGFQQTMQMLNEGIVPTAMLVANDQMALGAMRAITESGLRVGADISVVGYDDTEDSSCYIPPLTTIKQDFRLLGQTSVDRLLQLSQGQAVKGNQLLPVSLVKRKTTLAPNTQTASPRALADSLMQLARQVSRLESGQ [K84M]: the Tm came to 93 °C.
Same read-out and setting: the same measure for MKPVTLYDVAEYAGVSYQTVSRVVNQASHVSAKTREKVEAAMAELNYIPNRVAQQLAGKQSLLIGVATSSLALHAPSQIVAAILSRADQLGASVVVSMVERSGVEACKAAVHNLLAQRVSGLIINYPLDDQDAIAVEAACTNVPALFLDVSDQTPINSIIFSHEDGTRLGVEHLVALGHQQIALLAGPLSSVSARLRLAGWHKYLTRNQIQPIAEREGDWSAMSGFQQTMQMLNEGIVPTAMLVANDQMALGAMRAITESGLRVGADISVVGYDDTEDSSCYIPPLTTIKQDFRLLGQTSVDRLLQLSQGQAVKGNQLLPVSLVKRKTTLAPNTQTASPRALADSLMQLARQVSRLESGQ [K84L]: 93 °C.

Staying with this data set, now noted: Escherichia coli (strain K12); pH 7.5; Urea; CD; Tris-HCl 0.01 M; K2SO4 0.1 M; reversible: yes (90%); structure 1LBI; whole UniProt chain shown.
With MKPVTLYDVAEYAGVSYQTVSRVVNQASHVSAKTREKVEAAMAELNYIPNRVAQQLAGKQSLLIGVATSSLALHAPSQIVAAIKSRADQLGASVVVSMVERSGVEACKAAVHNLLAQRVSGLIINYPLDDQDAIAVEAACTNVPALFLDVSDQTPINSIIFSHEDGTRLGVEHLVALGHQQIALLAGPLSSVSARLRLAGWHKYLTRNQIQPIAEREGDWSAMSGFQQTMQMLNEGIVPTAMLVANDQMALGAMRAITESGLRVGADISVVGYDDTEDSSCDIPPLTTIKQDFRLLGQTSVDRLLQLSQGQAVKGNQLLPVSLVKRKTTLAPNTQTASPRALADSLMQLARQVSRLESGQ [Y282D], the unfolding free energy worked out at 4.8 kcal/mol.

In a further data set the parent is B5. The following applies: Geobacillus stearothermophilus; pH 7.6; Thermal; DSC; TEA 100 mM; structure 1BTM; whole UniProt chain shown.
With MRKPIIAGNWKMNKTLAEAVQFVEDVKGHVPPADEVISVVCAPFLFLDRLVQAADGTDLKIGAQTMHFADQGAYTGEVSPVMLKDLGVTYVILGHSERRQMFAETDETVNKKVLAAFTRGLIPIICCGESLEEREAGQTNAVVASQVEKALAGLTPEQVKQAVIAYEPIWAIGTGKSSTPEDANSVCGHIRSVVSRLFGPEAAEAIRIQYGGSVKPDNIRDFLAQQQIDGPLVGGASLEPASFLQLVEAGRHE [H13N], the Tm is 77 °C and the “change of melting temperature, mutant” value was determined as 1 °C.
